Data published in the RNAGym collection of RNA variant scans (doi:10.7554/elife.80360).

B1: Hairpin Ribozyme (parent)
chain: GUCCUCUUUCACGUGCGCGUGAAAGAGAGAAGUGAACCAGAGAAACACACGUUGUGGUAUAUUACCUGGUA

Variants of: B1
Experiment: self-cleavage, relative activity (ratio to wild type); higher = more cleavage; co-transcriptional

Variant	self-cleavage
G27U U62C	0.191
A28G U53C	1.06
A28G U53G	1.13
A28G U53A	1.01
G27A G34U	1.3
G27A G34C	0.945
G27U A49U	0.141
A26U G40C	0.0803
A28U A43G	0.0987
G27A A44C	0.143
G27A A44U	0.139
G27A A30G	0.0562
G27A A30C	0.141
A28G U58A	0.653
A26U A28U	0.257
A26U A28C	0.155
A26C G68C	0.147
A28C U63A	0.0573
A26C G54A	0.511
A26C G54U	0.314
A28C U67C	0.146
A26G U53G	0.682
A28U A64U	0.0714
A28U A64C	0.278

Variant	self-cleavage
A28U A64G	0.167
A28C G32A	0.172
G27U A71G	0.261
G27U A71U	0.166
A26C C65A	0.614
A26C C65U	0.256
A28G G57A	0.19
A28G G57U	0.36
A28G G51C	1.08
G27U G51C	0.158
G27A C50U	0.124
G27C A45G	0.19
G27C A45U	0.202
A28G U60C	0.795
A28G U60G	0.97
A26C G34C	1.47
A26U A39C	0.225
A26U A39G	0.207
A26G G68A	0.309
A28U A61C	0.18
A28U A61U	0.12
A28C G40U	0.101
A28C G40C	0.0679
A28G A61G	0.279

Variant	self-cleavage
A26U U62G	0.141
A28G A39G	0.357
A26U A30U	0.11
A26U C48G	0.117
A26G A61C	0.173
G27A U52C	0.477
G27A U52G	0.431
G27A C37G	0.15
A28U A36C	0.286
G27C G69A	0.0883
A28G A44U	0.142
G27C U60A	0.177
G27C U58C	0.214
A28G G68A	0.349
A26C C66U	0.315
A26C C48U	0.173
A28G A36U	0.7
A28G A49C	0.208
A28C C48U	0.124
G27A G68C	0.215
G27A G68U	0.184
A28G G69C	0.46
A26U C46G	0.317
A26G U55C	0.206

Variant	self-cleavage
A26G U55G	0.153
G27C G42C	0.165
G27C G42A	0.148
G27A C65A	0.396
G27A C65U	0.145
G27A A39C	0.2
A28G U33A	0.157
A26U G32U	0.202
A26U G57A	0.184
A26U G57C	0.123
A28G G40U	0.19
A28G A59U	0.32
A28C A49C	0.119
G27A C48U	0.183
G27A C48A	0.178
A26G A41G	1.13
A26G A41U	1.24
A28C A36C	0.32
A28C A36U	0.302
A28C A36G	0.552
A28C A41C	0.625
A26G A28U	0.491
A26G A28C	0.358
A28G G29C	0.12

Variant	self-cleavage
A26G G54A	0.605
G27U A30C	0.1
A26G A59U	0.233
A26G U52C	0.822
A26G U52G	0.721
A26C G56U	0.23
G27A A43U	0.052
A26U A59G	0.181
G27U U33A	0.121
G27U U33C	0.109
G27C U67C	0.103
A26U U67C	0.176
G27C A47G	0.125
A26C G32U	0.196
A26U A64C	0.15
G27C G32U	0.15
A28C G54U	0.262
A26G U70A	1.06
A26G U70G	0.81
A28G G32U	0.0347
A28G G32A	0.236
G27C C46G	0.152
G27C C46A	0.0983
A26U A44U	0.141

Variant	self-cleavage
A26U A44C	0.0769
A26U A44G	0.288
A26G C65A	0.702
G27C U55C	0.186
A26C U53C	0.741
A26U C66U	0.276
A26U C66A	0.146
G27A U58A	0.176
A28G G54A	0.646
A28G U70A	1.05
A26G U60G	0.717
G27A G51U	0.458
G27A G51A	0.337
A28C U62G	0.18
A28C U62C	0.203
A28C U62A	0.159
G27A U53G	0.518
G27A U53C	0.64
A26C G57U	0.32
G27C G54A	0.133
G27A G32C	0.226
G27A G32A	0.0917
A26U C38U	0.409
A26U C38G	0.109

Variant	self-cleavage
G27A U62A	0.155
A26G G56C	0.14
A26G G56U	0.151
A26G U33A	0.135
A28C U58G	0.151
A28C U58A	0.401
A28C A71G	0.457
A28C A71U	0.291
A28C A71C	1.05
A26C U55A	0.194
A28C C65G	0.229
A26G G51C	0.78
A26G G51A	0.938
A26G G51U	0.9
G27U C48G	0.137
G27U U55C	0.113
G27U U55G	0.224
A26G A47G	0.161
A28C A43G	0.129
A26U	0.683
A26G	0.901
A26U C65A	0.701
A26U C65U	0.161
